Results on one molecule are retold here after patent EP4671274A1.

The experiment addresses recombinant His-tagged canine interleukin-13 (cIL-13) (canine) (UniProt Q9N0W9). As to the kind of experiment: cell-based or functional assay.

Sequence of recombinant His-tagged canine interleukin-13 (cIL-13) (canine) (Q9N0W9 other isoform, or with tags, fused parts or gaps): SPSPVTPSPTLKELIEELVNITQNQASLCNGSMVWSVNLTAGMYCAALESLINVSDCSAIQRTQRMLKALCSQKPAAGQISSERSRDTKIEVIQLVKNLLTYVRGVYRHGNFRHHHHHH

B1: mouse monoclonal antibody 32A10-#20 (antibody, from another filing, V domains shown)
VH: EVQLQQSGPELVKPGASVKVSCKTSGYSFTDYPIYWVRQSHGESLEWIGYIDPYNGGTTYNQNFKDKATLTVDKSSSTAFMHLNSLTSEDSAVYFCATAVVATDVMENWGQGTSVTVSS
VL: DIVLTQSQKFMSTSVGDRVSITCKASQNVRNAVAWFQQKPGQSPKALIYLASNRYTGVPDHFTGSGSGTDFTLTISNVQSEDLADYFCLQHWNYPLTFGAGTKLELK
Take B1: the IL-13-dependent TF-1 cell proliferation inhibition IC50 lay within 2.9 to 4.2 nM and the Inhibitory Activity on TF-1 Cell Proliferation, IC50 is 3.97 nM.
